# Assay: soluble on expression in E. coli; label from the status in PepcDB or PDB records
row,Sequence,soluble on expression in E. coli
1,MSLFHPEISGEWGAVKGDNIELLLNVDLSNPSPAPILLETIKVKLAGVKIGETKRANIAIFSRKVTIDSIINLDNLTTALINHIKEKEESTVSVYAKLELFDVIPVEYSRDVNFQTDLLSYLKNLRVEPKIYSIGGIPLKTPGIEGMDAKWGRVSNDSIEIIGWLKLYNPNSFPIPVTGLSADLYMNSVNIGKGVILKGTVLQPNSRGEVKVKLVLDVDNFKEAFKTHITNGERSTIRADINLVVKVGGVEYEIPIKDIETTFETDILGSIKFGEGHHHHHH,soluble
2,HHHHHHMDLVEKVKELCLELEEENLAKAIERFITLTHGIEKTRGEAFAKASIYGFLEGILTTLKMKYSNEKIETLLNEVKTAREETEALLRKPRPPLLVDNDL,soluble
3,MNKIIISIGREFGSGGRRIGELLAKELEVPCYDRHLIEEAACRSGFETKELEEADEMKANRFLFKVPAKSNQYTGYGKPMNDTLFAIQSELIRKYADAGSCVIVGRCADKVLEKQEGLISVFIYAPLEARVEEIRRRYETDGEEALYLVRQADKIRRNYYNYYAKKKWGDRSSYDLMIDSSHFTDREVAAMIRAVSEERKAEWEENKFSTPQG,not soluble
4,MGHHHHHHSHMLKIIRAGMYTTVQDGGRHGFRQSGISHCGALDMPALRIANLLVGNDANAPALEITLGQLTVEFETDGWFALTGAGCEARLDDNAVWTGWRLPMKAGQRLTLKRPQHGMRSYLAVAGGIDVPPVMGSCSTDLKVGIGGLEGRLLKDGDRLPIGKSKRDSMEAQGVKQLLWGNRIRALPGPEYHEFDRASQDAFWRSPWQLSSQSNRMGYRLQGQILKRTTDRELLSHGLLPGVVQVPHNGQPIVLMNDAQTTGGYPRIACIIEADMYHLAQIPLGQPIHFVQCSLEEALKARQDQQRYFEQLAWRLHNEN,not soluble
5,DGVRIFNSLAATVYADSTAAHADMQGRRLKAVSDGLDHNGTGLRVIAQTQQDGGTWEQGGVEGKMRGSTQTVGIAAKTGENTTAAATLGMGRSTWSENSANAKTDSISLFAGIRHDAGDIGYLKGLFSYGRYKNSISRSTGADEHAEGSVNGTLMQLGALGGVNVPFAATGDLTVEGGLRYDLLKQDAFAEKGSALGWSGNSLTEGTLVGLAGLKLSQPLSDKAVLFATAGVERDLNGRDYTVTGGFTGATAATGKTGARNMPHTRLVAGLGADVEFGNGWNGLARYSYAGSKQYGNHSGRVGVGYRF,soluble
6,MEYRLKAYYREGEKPSALRRAGKLPGLMYNRHLNRKVYVDLVEFDKVFRQASIHHVIVLELPDGQSLPTLVRQVNLDKRRRRPEHVDFFVLSDEPVEMYVPLRFVGTPAGVRAGGVLQEIHRDILVKVSPRNIPEFIEVDVSGLEIGDSLHASDLKLPPGVELAVSPEETIAAVVPPEDVEKLAEEAAAEVAEPEVIKKGKEEEEE,soluble
7,MAQENPLWMRHCAISPDGTTIAFTYKGDIFTVPVSGGKATQITTNPAFDTTPIWSPDSKQIAFASDRMGSMDVFIVSKDGGEPRRLTTFSGGETPVAFTDAGHILFTADIMPSTEDAGFPSNGQFQQIYQIPVSGGRPVMFSSMPMECISINKEGTILYQDKKGYEDYWRKHQKSPIARDIWMLRPGQTPRYEKQTTFIGEDREPVWAPDGKSFYYLSEENGTFNVYQRTPGSDTSKQVTHHKQHPVRFLEHHHHHH,not soluble
8,MPKNDLLLRSLRGEPIGRFPVWLMRQAGRYMPEYRKIRNRVKNFLELCKNVDLATEISLLPLKILGVDAIIIFSDILVPLEPLGVKVEFVEGEGPKLSWSGKVSDLKKYDPSQNAYVYEIIKRVKEAQDEVPVIGFAGAPFTLLSYLIEGGASKDFKSTKLFMWENPKEYKRLMDILTETVLAYLKEQIKAGADVVQIFDSWVNNLSLEDYGEYVYPYVNYLISELKDFSDTPVIYFFRGSSSFIDLAVDYRADALSVDWSVDIPELFKIYDKGFQGNLEPAVLYASEEVIEEKTLGLLRRIPVKTRYVFNLGHGLAPDMELEKVKYLVDLVKSFPLT,soluble
9,MNGNGENGTDEKQKLLSVVGVVSEEVVEMNRVSSARFQVSKTDEDEKTSDDNLRKLKSGSEPPPPTQNHEAVTLVTRKMSATGRFMVTSDTNPGQLVAEVADELGIDVPIDPPAEKSPASRAKGVHFSVGDKDSGSMSEDGDEKRNITHENQTTFNMKSWRNMKTIEHPPIIDFYRNSIDTDGVFNRPSMAQLIHGKEHKEQDLGFEELNKKPETAQLAKVIGLNLLSKEDQERRDFERKKRINQQKLQEMHKMHKETYNFR,not soluble
10,MNPLHLETLLAIIDEGSFEDAAFALGISPSAVSQRIKALERETGRVVVRRTSPVTATDAGEVLVQSARRMALLQAETNAQLRGRIERIPLSVAVNADSLATWFRRVMASVAEMDNATLHMRIEDESHSLSLLRRGDVLGAVTGEKTPVSGCDSIALGAFRYFAVASPKLLDRYTIDGAVDWERMPVLRFGPRDGLQDRDIKRRLGEVPAGRRVNEIPSSEAFMEAARVGLGWAMLPDIQALPLLDSGEVVMLDSEVHEVPLYWQRWRLESPALERLTQAVVDAALEGLHPLSA,not soluble
11,DADAEFDIVIGNIEDIIMEDEFQHLQQSFMEKYYLEFDDSEENKLSYTPIFNEYIEILEKHLEQQLVERIPGFNMDAFTHSLKQHKDEVSGDILDMLLTFTDFMAFKEMFTDYRAEKEGRG,soluble
12,MRMEAGEAAPPAGAGGRATGGWGKWVRLNVGGTVFLTTRQTLCREQKSFLSRLCQGEELQSDRDETGAYLIDRDPTYFGPILNFLRHGKLVLDKDMAEEGVLEEAEFYNIGPLIRIIKDRMEEKDYTVTQVPPKHVYRVLQCQEEELTQMVSTMSDGWRFEQLVNIGSSYNYGSEDQAEFLCVVSKELHSTPNGLSSESSRKTKSTEEQLEEQQQQEEEVEEVEVEQVQVEADAQEKGAANPQEDDC,soluble
13,MNDSTCPRPCLMKLDLQSSTNKLAFLKDNWPSFGQIESIDRLSETELRCTLCLLDVVLAALAKDECFCPNREIIRLVLTRTYVQNRCELCETEEIRSKLMKGFCTWEKKNGLSRKNEIRRRGISVFYGAILRMLSKVNGKQE,not soluble
14,MGHHHHHHSHMQHLENSSLFEGSLSKNLSLNSQALKENLYYEAGKMLAISLVHGGPSPGFFSKTLFNCLVYGPENTQPILDDVSDFDVAQIIIRINTATTVADLKSIINECYNYLELIGCLRLITTLSDKYMLVKDILGYHVIQRVHTPFESFKQGLKTLGVLEKIQAYPEAFCSILCHKPESLSAKILSELFTVHTLPDVKALGFWNSYLQAVEDGKSTATMEDILIFATGCSSIPPAGFKPTPSIECLHVDFPVGNKCNNCLAIPITNTYKEFQENMDFTIRNTLRLEKEESSHYIGH,not soluble
15,MNTAHGSDVTRPLDWLVSNFASDVPGVSHAVLVSADGLLMAASAHLPIDRAEQLAAVTSGLASLSAGVSRLFEGGGVLQSVVEMQHGYLLLMSVGDGSHLATLTDAECDIGQVGYEMAILVDRVGASVQATARTPQGL,not soluble
16,MGSDKIHHHHHHMEEIVLFHTNDLHSHFENWPKIRRLVKAKRSLYQKEGKTVVTIDLGDFSDRCHPLTEATDGRANVAIMNTLAYDLVTIGNNEGIGNSKKQLEHLYDQATFEVVLANLEEPKTQTLPDFCQAYKIMTTKEGTKLGFIGLTAPFPLTYNPNGWTIKQVEAVLPQLITEVAPQCDVLILLSHLGIDTDFMIAANYPEIQVILGSHTHHLFKDGEKINHVQLAAAGKYGQYIGEVHLFVDADTKQVTSYAKTIETASLEEQATDAKEIAGYLTEGHRLLQAQQIAQIPETLSTDLRQPHAFITVALKALKEAGQTEAAVLNNGLFLADLPEGIINADQLHEALPHPMHLIKVTLKGSDMSRLIREMEKSRQFLRKFPIRGMGFRGKIFGELCYDGIRFEPNSQTVFWQGKPIQPEQKYTLTTVDHFQFVPFFPTIELVGEVEFLFPDVLRTVVANYLHAHYPIK,not soluble
17,MEFYSQSRFSNWVNKIAETELDEDNPETFAVFDQMLEDVIIACLSIIRAVKEREIRKADAVKEVEKILGLIPNHDFGDELKNELFQFTLESIKAVLLSFRLYFEGKISKKSFEALLKDALKKEQSGDYEGSLNAVAQMGAKVIKGEQLPELDIPEDSAVISWIDGIDAISSVLELSKIDAPTE,not soluble
18,MKKVYFATKADVERLHSFFGQANKKDDKINELYAQFMILEEAEEIRAVIGYEQSGEDVLIRSCLFTPHVDKQTFLYFFEMFLQYMKEKSVQQLYLLTNHPQSVPIFQFFDFFTIEKDEVPEGIQQLEHFCKNIKEQNAIILNCQLFTKLSTD,not soluble
